Laboratory results: patent US20200347133A1 (INHIBRX, published 2020)
Residue numbers refer to the chain shown, from its start.

B1: F02 sdAb (F02 VHH domain fused to human IgG1 xELL Fc region) (Fc fusion)
chain: QVQLVQSGGGLVQAGGSLRLSCAASGSISSYNVVGWYRQLSGNERGGRTMVAQINAYGDTNYANAVVGRFTISRDDAKNTVYLHMSNLKPEDTGVYYCNGQRMLENYTYRDQSWGQGTQVTVDKTHTCPPCPAPGGPSVFLFPPKPKDTLMISRTPEVTCVVVDVSHEDPEVKFNWYVDGVEVHNAKTKPREEQYNSTYRVVSVLTVLHQDWLNGKEYKCKVSNKALPAPIEKTISKAKGQPREPQVYTLPPSRDELTKNQVSLTCLVKGFYPSDIAVEWESNGQPENNYKTTPPVLDSDGSFFLYSKLTVDKSRWQQGNVFSCSVMHEALHNHYTQKSLSLSPGK
notes: VHH-Fc; no linker stated; also called F02-IgG1
B2: hz1G3v3 sdAb (hz1G3v3 VHH domain fused to human IgG1 xELL Fc region) (Fc fusion)
chain: EVQLVESGGGEVQPGGSLRLSCAASGFTFSSYAMGWFRQAPGKGREWVAAITTSGDTTYYAESVKGRFTISRDNAKNTVYLQMSSLRAEDTAVYYCAAHRGGGVIDYWGQGTLVTVDKTHTCPPCPAPGGPSVFLFPPKPKDTLMISRTPEVTCVVVDVSHEDPEVKFNWYVDGVEVHNAKTKPREEQYNSTYRVVSVLTVLHQDWLNGKEYKCKVSNKALPAPIEKTISKAKGQPREPQVYTLPPSRDELTKNQVSLTCLVKGFYPSDIAVEWESNGQPENNYKTTPPVLDSDGSFFLYSKLTVDKSRWQQGNVFSCSVMHEALHNHYTQKSLSLSPGK
notes: VHH-Fc; no linker stated; also called hz1G3v3-IgG1
B3: 1H9 sdAb (1H9 VHH domain fused to human IgG1 xELL Fc region) (Fc fusion)
chain: EVQLQQSGGAVVQPGGSLRLSCAASGSIFSISIMGWYRQAPGKERELVASTTSSGTTNYVDSVKGRFTASRDNAKNTVYLQMNSLKPDDTAIYHCHAYIATTTDRGYRGYWGQGTQVTVDKTHTCPPCPAPGGPSVFLFPPKPKDTLMISRTPEVTCVVVDVSHEDPEVKFNWYVDGVEVHNAKTKPREEQYNSTYRVVSVLTVLHQDWLNGKEYKCKVSNKALPAPIEKTISKAKGQPREPQVYTLPPSRDELTKNQVSLTCLVKGFYPSDIAVEWESNGQPENNYKTTPPVLDSDGSFFLYSKLTVDKSRWQQGNVFSCSVMHEALHNHYTQKSLSLSPGK
notes: VHH-Fc; no linker stated; also called 1H9-IgG1
B4: hz1E4v2 sdAb (hz1E4v2 VHH domain fused to human IgG1 xELL Fc region) (Fc fusion)
chain: EVQLVESGGGEVQPGGSLRLSCAASGSGFSASLMSWHRQAPGKQRDLVASITRDGRANYVESVKGRFTISRDNAKNTLYLQMSSLRAEDTAVYYCHAYSFDYPIRSYWGQGTLVTVDKTHTCPPCPAPGGPSVFLFPPKPKDTLMISRTPEVTCVVVDVSHEDPEVKFNWYVDGVEVHNAKTKPREEQYNSTYRVVSVLTVLHQDWLNGKEYKCKVSNKALPAPIEKTISKAKGQPREPQVYTLPPSRDELTKNQVSLTCLVKGFYPSDIAVEWESNGQPENNYKTTPPVLDSDGSFFLYSKLTVDKSRWQQGNVFSCSVMHEALHNHYTQKSLSLSPGK
notes: VHH-Fc; no linker stated; also called hz1E4v2-IgG1
B5: hz1H9v2 sdAb (hz1H9v2 VHH domain fused to human IgG1 xELL Fc region) (Fc fusion)
chain: EVQLVESGGGEVQPGGSLRLSCAASGSIFSISIMGWYRQAPGKERELVASTTSSGTTNYVESVKGRFTISRDNAKNTLYLQMSSLRAEDTAVYYCHAYIATTTDRGYRGYWGQGTLVTVDKTHTCPPCPAPGGPSVFLFPPKPKDTLMISRTPEVTCVVVDVSHEDPEVKFNWYVDGVEVHNAKTKPREEQYNSTYRVVSVLTVLHQDWLNGKEYKCKVSNKALPAPIEKTISKAKGQPREPQVYTLPPSRDELTKNQVSLTCLVKGFYPSDIAVEWESNGQPENNYKTTPPVLDSDGSFFLYSKLTVDKSRWQQGNVFSCSVMHEALHNHYTQKSLSLSPGK
notes: VHH-Fc; no linker stated; also called hz1H9v2-IgG1
B6: 1E4 sdAb (1E4 VHH domain fused to human IgG1 xELL Fc region) (Fc fusion)
chain: QVQLQQSGGGSVQAGGSLRLSCVASGSGFSASLMSWHRQAPGSQRDLVASITRDGRANYVDSVKDRFTISRDNAKNTAYLQMDSLKPEDTAAYYCHAYSFDYPIRSYWGQGTQVTVDKTHTCPPCPAPGGPSVFLFPPKPKDTLMISRTPEVTCVVVDVSHEDPEVKFNWYVDGVEVHNAKTKPREEQYNSTYRVVSVLTVLHQDWLNGKEYKCKVSNKALPAPIEKTISKAKGQPREPQVYTLPPSRDELTKNQVSLTCLVKGFYPSDIAVEWESNGQPENNYKTTPPVLDSDGSFFLYSKLTVDKSRWQQGNVFSCSVMHEALHNHYTQKSLSLSPGK
notes: VHH-Fc; no linker between VHH and Fc is stated; also called 1E4-IgG1
B7: 1G3 sdAb (1G3 VHH domain fused to human IgG1 xELL Fc region) (Fc fusion)
chain: B2 chain with V5Q, E6Q, A23E, L113Q
notes: VHH-Fc; no linker stated
B8: 1C7 sdAb (1C7 VHH domain fused to human IgG1 xELL Fc region) (Fc fusion)
chain: QVQLQQSGGGLVQAGGSLRLSCAASGRTFSGYIMGWFRQVPGKERELVARISGNNLSTEYGGSVKGRFTISRDSAKETMYLQMNSLKPEDTAIYYCAAEYDYSSGDFVYWGQGTQVTVDKTHTCPPCPAPGGPSVFLFPPKPKDTLMISRTPEVTCVVVDVSHEDPEVKFNWYVDGVEVHNAKTKPREEQYNSTYRVVSVLTVLHQDWLNGKEYKCKVSNKALPAPIEKTISKAKGQPREPQVYTLPPSRDELTKNQVSLTCLVKGFYPSDIAVEWESNGQPENNYKTTPPVLDSDGSFFLYSKLTVDKSRWQQGNVFSCSVMHEALHNHYTQKSLSLSPGK
notes: VHH-Fc; no linker stated; also called 1C7-IgG1
B9: G11 sdAb (G11 VHH domain fused to human IgG1 xELL Fc region) (Fc fusion)
chain: EVQLVQSGGGSVQVGGSLRLSCAASGSTLNIDHIGWYRQAPGKERELVGVISSGAGPNYADSVKGRFTISRDNAKNTVYLQMNSLKPEDTAVYNCNAWIDYGSGLPQNYWGQGTQVTVDKTHTCPPCPAPGGPSVFLFPPKPKDTLMISRTPEVTCVVVDVSHEDPEVKFNWYVDGVEVHNAKTKPREEQYNSTYRVVSVLTVLHQDWLNGKEYKCKVSNKALPAPIEKTISKAKGQPREPQVYTLPPSRDELTKNQVSLTCLVKGFYPSDIAVEWESNGQPENNYKTTPPVLDSDGSFFLYSKLTVDKSRWQQGNVFSCSVMHEALHNHYTQKSLSLSPGK
notes: VHH-Fc; no linker stated
B10: hzG11v2 sdAb (hzG11v2 VHH domain fused to human IgG1 xELL Fc region) (Fc fusion)
chain: B9 chain with Q6E, S11E, V14P, D61E, N83S, K86R, P87A, N94Y, Q115L
notes: VHH-Fc; no linker stated; also called hzG11v2-IgG1
B11: hzB07v7 sdAb (hzB07v7 VHH domain fused to human IgG1 xELL Fc region) (Fc fusion)
chain: EVQLVESGGGEVQPGGSLRLSCAASGRTISDYVVGWFRQAPGKERAFVAAISRYGTTYYAASVQGRFTISRDNPRNTVYLQVDSLRAEDTAVYYCAALQNDVRNNHSPTSYDYWGQGTLVTVDKTHTCPPCPAPGGPSVFLFPPKPKDTLMISRTPEVTCVVVDVSHEDPEVKFNWYVDGVEVHNAKTKPREEQYNSTYRVVSVLTVLHQDWLNGKEYKCKVSNKALPAPIEKTISKAKGQPREPQVYTLPPSRDELTKNQVSLTCLVKGFYPSDIAVEWESNGQPENNYKTTPPVLDSDGSFFLYSKLTVDKSRWQQGNVFSCSVMHEALHNHYTQKSLSLSPGK
notes: VHH-Fc; no linker stated; also called hzB07v7-IgG1

Each binder was assayed against T1, CD33m, truncated human CD33 protein expressed on transfected cells (human, UniProt P20138 140-259) (assay: flow cytometry on cells transfected with truncated CD33m; apparent Kd, one-site fit).
T1 construct: leader and transmembrane domain are not in it; also called truncated CD33
T1 sequence (P20138 140-259 limits assumed): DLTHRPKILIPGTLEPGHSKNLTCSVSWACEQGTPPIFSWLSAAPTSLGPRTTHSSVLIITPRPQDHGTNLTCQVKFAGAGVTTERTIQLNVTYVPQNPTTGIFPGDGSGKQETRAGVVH
Description: (§1) Binding of sdAbs to human CD33 was assessed by flow cytometry. […] MOLM-13 cells were transiently transfected with a plasmid encoding a sequence comprising “CD33M” (SEQ ID NO: 112) or a plasmid encoding a sequence comprising a truncated version, “CD33m” (SEQ ID NO: 113). The sequence encoded by the CD33M plasmid includes the leader sequence, full extracellular domain, transmembrane domain, and cytoplasmic domain. The sequence encoded by the CD33m plasmid includes the leader sequence, the membrane proximal IgC2 domain, and the transmembrane domain. Untransfected HEK 293 cells were used as CD33-negative cells. Each cell type was plated at 30,000 cells/well in FACS buffer (PBS 1% BSA, 0.1% NaN₃ pH 7.4) on a 96-well round-bottom plate. The sdAbs were diluted in FACS buffer in a 3-fold, 11 point serial dilution. The sdAb dilutions were added to the plated cells, and assay plates were incubated for 30 minutes at 4° C. After washing twice in 150 μL of FACS buffer, cells in each well were resuspended in 100 μL of 1:2000 Alexa Fluor 647-conjugated Anti-Human IgG secondary diluted in FACS buffer and incubated at 4° C. for 30 minutes. The cells were washed twice more, then bound antibody was detected by flow cytometry.
(§2) Flow cytometric analysis was performed on an Intellicyte iQue Plus and fluorescence was plotted as median fluorescence intensity. The apparent affinity (Kd, nM) was determined using one site binding non-linear regression in PRISM graph software.

Kd [nM]	Binder
5.15	B1

What follows are binders tested against T2, CD33M, full length human CD33 protein expressed on transfected cells (human, UniProt P20138 18-303) (assay: flow cytometry on MOLM-13 cells transfected with CD33 (CD33M per Table 3), anti-human IgG Alexa Fluor 647 secondary, median fluorescence).
T2 construct: also called full length CD33
T2 sequence (P20138 18-303): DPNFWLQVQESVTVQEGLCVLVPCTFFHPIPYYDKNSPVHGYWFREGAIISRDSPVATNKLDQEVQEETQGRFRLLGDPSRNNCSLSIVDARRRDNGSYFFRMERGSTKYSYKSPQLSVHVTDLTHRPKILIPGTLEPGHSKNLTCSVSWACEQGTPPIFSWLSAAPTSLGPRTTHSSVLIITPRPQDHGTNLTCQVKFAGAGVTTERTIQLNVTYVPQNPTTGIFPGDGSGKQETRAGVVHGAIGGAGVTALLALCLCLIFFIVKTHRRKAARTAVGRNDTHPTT
Description: as §1, §2

EC50 (read off the curve) [nM]	Binder
~2	B2
~0.2	B3
~0.3	B4
~0.3	B5
~0.07	B6

Each binder was assayed against T2, CD33M, full length human CD33 protein … (assay: flow cytometry on cells transfected with CD33M; apparent Kd, one-site fit).
Description: as §1, §2

Kd [nM]	Binder
0.49	B7
1.6	B2
6.64	B8
0.14	B3
0.32	B4
1.1	B9
2.67	B10
0.27	B5
15.2	B1
0.75	B11
0.05	B6

The binders below were run against T2, CD33M, full length human CD33 protein … (assay: flow cytometry on cells labelled CD33M-HEK-293, anti-human IgG Alexa Fluor 647 secondary, median fluorescence).
Description: Binding of sdAbs to human CD33 was assessed by flow cytometry. […] […] The sequence encoded by the CD33M plasmid includes the leader sequence, full extracellular domain, transmembrane domain, and cytoplasmic domain. The sequence encoded by the CD33m plasmid includes the leader sequence, the membrane proximal IgC2 domain, and the transmembrane domain. Untransfected HEK 293 cells were used as CD33-negative cells. Each cell type was plated at 30,000 cells/well in FACS buffer (PBS 1% BSA, 0.1% NaN₃ pH 7.4) on a 96-well round-bottom plate. The sdAbs were diluted in FACS buffer in a 3-fold, 11 point serial dilution. The sdAb dilutions were added to the plated cells, and assay plates were incubated for 30 minutes at 4° C. After washing twice in 150 μL of FACS buffer, cells in each well were resuspended in 100 μL of 1:2000 Alexa Fluor 647-conjugated Anti-Human IgG secondary diluted in FACS buffer and incubated at 4° C. for 30 minutes. The cells were washed twice more, then bound antibody was detected by flow cytometry.
as §2

EC50 (read off the curve) [nM]	Binder
~2	B10
~0.7	B11
